Results from article PMC10942606.

Legend:
Assay in all cases: MST
Pcf1-ΔWHD;Pcf2;Pcf3 = biological target: T1, Pcf1-ΔWHD;Pcf2;Pcf3 (Schizosaccharomyces …, UniProt Q1MTN9;O13985;Q9Y825 1-470;1-512;1-408, del471-544||)
T1 sequence 1: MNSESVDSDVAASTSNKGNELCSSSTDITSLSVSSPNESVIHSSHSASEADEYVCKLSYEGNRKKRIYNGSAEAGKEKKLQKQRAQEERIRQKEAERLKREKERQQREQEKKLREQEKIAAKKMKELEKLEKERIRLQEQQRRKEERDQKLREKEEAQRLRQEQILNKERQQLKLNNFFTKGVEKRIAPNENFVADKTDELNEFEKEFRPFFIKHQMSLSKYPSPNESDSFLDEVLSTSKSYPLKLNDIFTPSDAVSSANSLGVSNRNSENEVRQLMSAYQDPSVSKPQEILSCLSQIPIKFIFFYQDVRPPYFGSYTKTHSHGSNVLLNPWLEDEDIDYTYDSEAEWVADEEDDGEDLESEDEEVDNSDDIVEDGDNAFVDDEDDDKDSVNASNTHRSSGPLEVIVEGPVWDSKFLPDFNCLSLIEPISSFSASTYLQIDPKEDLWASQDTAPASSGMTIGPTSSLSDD
T1 sequence 2: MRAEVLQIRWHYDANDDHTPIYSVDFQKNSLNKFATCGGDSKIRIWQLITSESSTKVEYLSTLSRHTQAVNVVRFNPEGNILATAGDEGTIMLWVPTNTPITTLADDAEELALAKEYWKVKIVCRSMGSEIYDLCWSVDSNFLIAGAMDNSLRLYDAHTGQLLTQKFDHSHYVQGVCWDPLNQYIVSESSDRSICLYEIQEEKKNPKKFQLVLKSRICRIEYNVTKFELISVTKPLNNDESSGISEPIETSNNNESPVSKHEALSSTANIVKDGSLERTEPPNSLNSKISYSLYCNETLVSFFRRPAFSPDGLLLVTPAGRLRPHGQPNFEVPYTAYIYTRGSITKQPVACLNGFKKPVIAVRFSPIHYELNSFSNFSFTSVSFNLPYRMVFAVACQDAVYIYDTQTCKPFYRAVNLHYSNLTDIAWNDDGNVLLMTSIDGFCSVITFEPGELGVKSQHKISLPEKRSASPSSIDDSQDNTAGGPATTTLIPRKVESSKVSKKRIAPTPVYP
T1 sequence 3: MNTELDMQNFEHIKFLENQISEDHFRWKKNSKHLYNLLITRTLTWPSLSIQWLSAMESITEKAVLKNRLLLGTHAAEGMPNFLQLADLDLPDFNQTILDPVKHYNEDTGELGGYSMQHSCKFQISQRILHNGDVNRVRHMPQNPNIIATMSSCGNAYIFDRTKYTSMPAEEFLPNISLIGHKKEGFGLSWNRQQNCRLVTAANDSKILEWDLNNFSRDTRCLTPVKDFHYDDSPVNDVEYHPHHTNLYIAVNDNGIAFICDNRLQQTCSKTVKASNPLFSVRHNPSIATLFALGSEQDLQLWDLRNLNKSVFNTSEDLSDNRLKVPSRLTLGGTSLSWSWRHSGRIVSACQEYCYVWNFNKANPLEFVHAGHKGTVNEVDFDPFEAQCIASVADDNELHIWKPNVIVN

Pcf1_KER = biological target: T2, Pcf1_KER (Schizosaccharomyces pombe, UniProt Q1MTN9 56-170)
T2 sequence: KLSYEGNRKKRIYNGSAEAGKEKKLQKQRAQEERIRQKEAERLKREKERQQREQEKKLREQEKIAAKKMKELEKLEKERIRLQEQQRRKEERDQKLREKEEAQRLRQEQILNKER

Pcf1_WHD = biological target: T3, Pcf1_WHD (Schizosaccharomyces pombe, UniProt Q1MTN9 471-544)
T3 sequence: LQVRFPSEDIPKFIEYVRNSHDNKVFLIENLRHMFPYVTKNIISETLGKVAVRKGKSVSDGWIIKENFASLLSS

Pcf1-KER*;Pcf2;Pcf3 = biological target: T4, Pcf1-KER*;Pcf2;Pcf3 (Schizosaccharomyces …, UniProt Q1MTN9;O13985;Q9Y825 1-544;1-512;1-408, R147E;K150E;K154E;R161E;K168E||)
T4 sequence 1: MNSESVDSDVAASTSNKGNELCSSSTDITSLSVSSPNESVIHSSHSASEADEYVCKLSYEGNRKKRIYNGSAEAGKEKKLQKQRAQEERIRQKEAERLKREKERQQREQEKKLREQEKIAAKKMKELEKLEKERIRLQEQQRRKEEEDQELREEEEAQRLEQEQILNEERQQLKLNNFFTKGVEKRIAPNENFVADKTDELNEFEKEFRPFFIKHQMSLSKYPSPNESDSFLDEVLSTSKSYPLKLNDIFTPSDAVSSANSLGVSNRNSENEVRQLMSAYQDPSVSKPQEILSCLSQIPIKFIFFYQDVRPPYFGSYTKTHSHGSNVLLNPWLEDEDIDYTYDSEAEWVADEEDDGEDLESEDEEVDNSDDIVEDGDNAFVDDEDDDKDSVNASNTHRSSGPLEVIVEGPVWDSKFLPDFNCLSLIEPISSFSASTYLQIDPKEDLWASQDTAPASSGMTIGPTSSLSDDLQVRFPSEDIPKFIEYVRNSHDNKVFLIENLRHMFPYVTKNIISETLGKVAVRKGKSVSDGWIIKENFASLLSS
T4 sequence 2: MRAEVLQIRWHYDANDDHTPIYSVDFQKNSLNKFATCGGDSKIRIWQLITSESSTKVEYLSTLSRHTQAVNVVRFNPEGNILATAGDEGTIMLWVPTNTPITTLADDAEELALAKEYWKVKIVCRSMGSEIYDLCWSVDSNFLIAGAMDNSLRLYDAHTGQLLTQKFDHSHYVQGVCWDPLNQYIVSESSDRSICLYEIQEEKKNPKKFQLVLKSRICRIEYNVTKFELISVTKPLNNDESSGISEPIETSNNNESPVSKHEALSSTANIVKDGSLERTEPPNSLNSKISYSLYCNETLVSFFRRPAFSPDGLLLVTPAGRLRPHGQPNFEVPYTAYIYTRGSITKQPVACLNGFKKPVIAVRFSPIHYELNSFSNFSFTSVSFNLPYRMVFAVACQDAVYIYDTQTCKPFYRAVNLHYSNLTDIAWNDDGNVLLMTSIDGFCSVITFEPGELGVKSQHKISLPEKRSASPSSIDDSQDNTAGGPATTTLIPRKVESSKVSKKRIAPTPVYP
T4 sequence 3: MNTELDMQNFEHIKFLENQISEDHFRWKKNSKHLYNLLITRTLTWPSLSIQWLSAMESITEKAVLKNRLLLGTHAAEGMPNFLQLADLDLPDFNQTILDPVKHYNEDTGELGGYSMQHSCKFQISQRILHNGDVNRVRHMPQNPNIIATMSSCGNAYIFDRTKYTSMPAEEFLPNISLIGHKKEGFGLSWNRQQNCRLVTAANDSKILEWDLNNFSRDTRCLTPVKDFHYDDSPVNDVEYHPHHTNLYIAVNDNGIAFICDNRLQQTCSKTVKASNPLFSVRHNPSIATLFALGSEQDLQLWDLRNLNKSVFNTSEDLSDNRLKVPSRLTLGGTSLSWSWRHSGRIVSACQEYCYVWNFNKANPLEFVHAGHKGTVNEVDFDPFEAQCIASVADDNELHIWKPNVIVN

B1: 40 bp dsDNA, Alexa488 (dsDNA)
DNA 1: ATCAATATCCACCTGCAGATACTACCAAAAGTGTATTTGG
DNA 2: CCAAATACACTTTTGGTAGTATCTGCAGGTGGATATTGAT
- apparent K (half saturation) (Pcf1-ΔWHD;Pcf2;Pcf3): 700 ± 100 nM
- apparent K (half saturation) (Pcf1_KER): 1100 ± 200 nM
- binding result (Pcf1_WHD): no binding
- apparent K (half saturation) (Pcf1-KER*;Pcf2;Pcf3): 2800 ± 400 nM
